From patent publication US20110038869A1 (Genmab, published 2011)
Where a chain is given by its changes, count along the chain named. Values belong to the binder of their own block, whether it stands above or below them.

Assays:
CD32bECDHis [1] = biological target: T1, CD32bECDHis (human, UniProt P31994 43-223, limits assumed); experiment: ELISA on coated CD32bECDHis
T1 construct: Produced in HEK-293F cells; also called extracellular domain of CD32b with C-terminal His tag; soluble CD32b
T1 sequence (looked up): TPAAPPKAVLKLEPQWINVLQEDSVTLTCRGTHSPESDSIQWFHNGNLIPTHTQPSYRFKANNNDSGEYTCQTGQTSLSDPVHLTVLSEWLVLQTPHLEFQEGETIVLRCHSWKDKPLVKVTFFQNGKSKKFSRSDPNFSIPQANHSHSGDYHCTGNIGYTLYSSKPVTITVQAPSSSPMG
Experimental: The specificity of the obtained anti-CD32b HuMabs was evaluated by ELISA. ELISA plates (Microlon; Greiner Bio-One) were coated overnight at 4° C. with 2 μg/ml of CD32aECDHis and CD32bECDHis in PBS, pH 7.4. Coated ELISA plates were washed with PBS, blocked for one hour at room temperature with 2% (v/v) chicken serum (Gibco, Paisley, Scotland) in PBS and washed again with PBS. Subsequently, HuMabs, serially diluted in PBSTC (PBS supplemented with 2% (v/v) chicken serum and 0.05% (v/v) Tween-20), were incubated for 1 hr at RT under shaking conditions (300 rpm). Bound HuMabs were detected using HRP-conjugated goat-anti-human IgG antibodies (Jackson ImmunoResearch Europe) diluted 1:10,000 in PBSTC, which were incubated for 1 hr at RT under shaking conditions (300 rpm). […] Binding curves were analyzed using non-linear regression (sigmoidal dose-response with variable slope) using GraphPad Prism V4.03 software.

[2] = biological target: T2, full length CD32a on stably transfected IIA1.6 cells (human, UniProt P12318 34-317); experiment: flow cytometry on IIA1.6-CD32a cells
T2 construct: whole, on cells; also called IIA1.6-CD32a; CD32a-expressing IIA1.6 cells
T2 sequence (looked up): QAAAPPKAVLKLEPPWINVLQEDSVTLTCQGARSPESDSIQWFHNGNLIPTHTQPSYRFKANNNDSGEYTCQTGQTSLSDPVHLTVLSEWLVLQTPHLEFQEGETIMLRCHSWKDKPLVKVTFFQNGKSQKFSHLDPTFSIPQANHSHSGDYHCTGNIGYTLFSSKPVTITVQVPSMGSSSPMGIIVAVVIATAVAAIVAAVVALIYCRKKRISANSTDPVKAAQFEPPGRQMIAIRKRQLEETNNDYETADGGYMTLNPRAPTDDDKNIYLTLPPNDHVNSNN
Experimental: (§1) After harvesting and counting, IIA1.6 cells stably transfected with full length CD32a and CD32b (van den Herik-Oudijk et al., 1994), control IIA1.6 cells and Daudi-luc cells were resuspended in PBS (1×10⁶ cells/ml). Cells were put in 96-well V-bottom plates (100 μl/well) and washed twice with FACS buffer (PBS supplemented with 0.1% BSA and 0.02% Na-azide). Thereafter, 50 μl of serially diluted HuMab in FACS buffer was added to the cells and incubated for 30 minutes at 4° C. After washing three times with FACS buffer, 50 μl of phycoerythrin (PE)-conjugated rabbit anti-human IgG (Jackson ImmunoResearch Europe), diluted 1:200 in FACS buffer, was added. After 30 minutes at 4° C. (in the dark), cells were washed three times, and specific binding of the HuMabs was detected by flow cytometry on a FACSCalibur (BD Biosciences). […] Binding curves were analyzed using non-linear regression (sigmoidal dose-response with variable slope) using GraphPad Prism V4.03 software (GraphPad Software, San Diego, Calif., USA).

[3] = biological target: T3, full length CD32b2 on transfected IIA1.6 cells (human, UniProt P31994-2 43-291); experiment: flow cytometry on IIA1.6-CD32b2 cells
T3 construct: whole, on cells; also called IIA1.6-CD32b2
T3 sequence (looked up): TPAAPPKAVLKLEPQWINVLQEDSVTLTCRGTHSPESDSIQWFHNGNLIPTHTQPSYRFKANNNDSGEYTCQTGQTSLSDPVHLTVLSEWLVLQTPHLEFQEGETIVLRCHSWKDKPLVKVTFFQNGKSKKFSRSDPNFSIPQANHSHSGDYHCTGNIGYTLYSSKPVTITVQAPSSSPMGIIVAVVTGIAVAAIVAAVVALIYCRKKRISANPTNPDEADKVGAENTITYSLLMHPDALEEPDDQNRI
Experimental: as §1
To analyze binding of anti-CD32b HuMabs to CD32b1 and CD32b2, IIA1.6 cells transfected with full length CD32b1 or CD32b2 (van den Herik-Oudijk et al., 1994) were prepared as described supra. The assay was performed as described supra. Flow cytometry was performed on a FACS Canto II (BD Biosciences).

CD32bECDHis [4] = biological target: T1, CD32bECDHis; experiment: TR-FRET competition against HuMab-KLH-AlexaFluor 647
Description: To study the interaction of anti-CD32b HuMabs with CD32b and CD32a in more detail TR-FRET technology was applied. To this end, CD32bECDHis and CD32aECDHis were labeled with a fluorescent donor molecule directed against the histidine tag (Anti-6×His Europium3+, PerkinElmer, Boston Mass.).
Briefly, all dilutions were made in 0.5× Lance detection buffer (PerkinElmer, Boston Mass.) supplemented with 0.2% BSA (obtained via dilution of 7.5% BSA Stabilizer solution, cat: CR84-100, PerkinElmer) and 0.03% (v/v) Tween-20 (Riedel de Haen, Seelze, Germany). CD32bECDHis and CD32aECDHis were diluted to 0.5 μg/ml. […] Anti-6×His Europium3+ (PerkinElmer, Boston Mass.) was diluted to 0.15 μg/ml. A 4-fold serial dilution of the tested HuMab antibody was made in a 96 wells non-binding plate (cat. 650261, Greiner Bio-one, Frickenhausen, Germany), ranging from 10 μg/ml-0.04 ng/ml. […] After overnight incubation at 4° C. in the dark, fluorescence was measured using an EnVision 2101 Multilabel reader (PerkinElmer, Boston, Mass.) applying the following settings; Lance/Delfia dual mirror, emission filter 615-665 nm, excitation filter 320 nm, delay time 60 μs, window 100 μs, 100 flashes, 2000 μs per cycle and bidirectional row-by-row reading. Binding curves were analyzed using non-linear regression (sigmoidal dose-response with variable slope) using GraphPad Prism V4.03 software (GraphPad Software, San Diego, Calif., USA).

CD32bECDHis [5] = biological target: T1, CD32bECDHis; experiment: SPR BIAcore 3000, antibody immobilized, CD32bECDHis analyte
Experimental: Antibody binding to CD32a and CD32b was analyzed by surface plasmon resonance in a BIAcore 3000 (GE Healthcare). CD32aECDHis and CD32bECDHis derived from HEK293 cells were used for the analysis. HuMab antibodies were immobilized on the CM-5 sensor chip according to the procedure recommended by the manufacturer. Briefly, after surface activation by EDC and NHS HuMab antibody was injected over the activated CM-5 surface in 10 mM sodium-acetate, pH ranging from 4.0 to 5.5 at 5 μl/min. followed by 1 M Ethanolamine for deactivation. Concentration series of CD32bECDHis in HBS-EP buffer were injected over the immobilized antibodies at a flow rate of 30 μl/min for 180 sec. Regeneration of the HuMab surface was performed by injection of 10 mM Glycine-HCl pH 2.0 or 10 mM sodium acetate pH 3.0. […] Kinetic analysis is performed using double reference subtraction and model 1:1 (langmuir) binding analysis. Specificity was studied by injecting CD32aECDHis at a concentration of […] over immobilized HuMab and isotype control antibodies under the same conditions as for the CD32b measurements.

biotinylated CD32bECDHis [6] = biological target: T4, biotinylated CD32bECDHis (human, UniProt P31994 43-223, limits assumed, biotinylated (sites not given)); experiment: competition ELISA, competitor 016
T4 sequence (looked up): T1 sequence (looked up)
Experimental: (§2) ELISA wells were coated overnight at 4° C. with anti-CD32b HuMabs serially diluted in PBS. The ELISA wells were washed with PBS, blocked for one hour at room temperature with 2% (v/v) chicken serum (Gibco, Paisley, Scotland) in PBS and washed again with PBS. Subsequently, the immobilized antibodies were incubated with biotinylated CD32bECDHis serially diluted in PBSTC. After washing with PBS/Tween, bound biotinylated CD32bECDHis was incubated with Streptavidin-poly-HRP (Sanquin, Amsterdam, The Netherlands) for 1 hr at RT an the reaction was developed as described supra.
(§3) To this end, ELISA wells coated with anti-CD32b HuMabs were incubated in the presence of an excess of CD32b-specific antibody and the predetermined concentration of biotinylated CD32bECDHis in fluid phase. The reaction was developed as described.

biotinylated CD32bECDHis [7] = biological target: T4, biotinylated CD32bECDHis; experiment: competition ELISA, competitor 020
Experimental: as §2, §3

biotinylated CD32bECDHis [8] = biological target: T4, biotinylated CD32bECDHis; experiment: competition ELISA, competitor 022
Experimental: as §2, §3

biotinylated CD32bECDHis [9] = biological target: T4, biotinylated CD32bECDHis; experiment: competition ELISA, competitor 024
Experimental: as §2, §3

biotinylated CD32bECDHis [10] = biological target: T4, biotinylated CD32bECDHis; experiment: competition ELISA, competitor 026
Experimental: as §2, §3

biotinylated CD32bECDHis [11] = biological target: T4, biotinylated CD32bECDHis; experiment: competition ELISA, competitor 028
Experimental: as §2, §3

biotinylated CD32bECDHis [12] = biological target: T4, biotinylated CD32bECDHis; experiment: competition ELISA, competitor 034
Experimental: as §2, §3

biotinylated CD32bECDHis [13] = biological target: T4, biotinylated CD32bECDHis; experiment: competition ELISA, competitor 038
Experimental: as §2, §3

biotinylated CD32bECDHis [14] = biological target: T4, biotinylated CD32bECDHis; experiment: competition ELISA, competitor 053
Experimental: as §2, §3

biotinylated CD32bECDHis [15] = biological target: T4, biotinylated CD32bECDHis; experiment: competition ELISA, competitor 063
Experimental: as §2, §3

biotinylated CD32bECDHis [16] = biological target: T4, biotinylated CD32bECDHis; experiment: competition ELISA, competitor 2B6
Experimental: as §2, §3

EC50 (CD32bECDHis [1]): 0.28 nM
EC50 [2]: 0.25 nM
EC50 [3]: 0.11 nM
IC50 (CD32bECDHis [4]): 0.24 nM
Kd (CD32bECDHis [5]): 1.1 nM
koff (CD32bECDHis [5]): 0.0028 s⁻¹
kon (CD32bECDHis [5]): 2.66e+06 M⁻¹ s⁻¹
B1: Antibody 016 (antibody, human IgG1, V domains shown)
VH: QVQLVESGGGVVQPGRSLRLSCAASGFTFSSYGIHWVRQAPGKGLEWVAVIGYDGSDKNYADSVKGRFTIFRDNSKNTLYLQMNSLRAEDTAVYYCARDQLGDAFDIWGQGTMVTVSS
VL: EIVLTQSPATLSLSPGERATLSCKASQSVSSSLAWYQQKPGQAPRLLIYDASNRATGIPARFSGSGSGTDFTLTISSLEPEDFAVYYCQQRSNWPPYTFGQGTKLEIKR
notes: Human antibody; also called HuMab 016

% residual binding (biotinylated CD32bECDHis [6]): 103%
% residual binding (biotinylated CD32bECDHis [7]): 59%
% residual binding (biotinylated CD32bECDHis [8]): 29%
% residual binding (biotinylated CD32bECDHis [9]): 23%
% residual binding (biotinylated CD32bECDHis [10]): 70%
% residual binding (biotinylated CD32bECDHis [11]): 49%
% residual binding (biotinylated CD32bECDHis [12]): 8%
% residual binding (biotinylated CD32bECDHis [13]): 102%
% residual binding (biotinylated CD32bECDHis [14]): 79%
% residual binding (biotinylated CD32bECDHis [15]): 0%
% residual binding (biotinylated CD32bECDHis [16]): 98%
% of maximal Fab-mediated inhibition (CD32bECDHis [4]): ~70%
B2: Antibody 063 (antibody, human IgG1, V domains shown)
VH: EVQLLESGGGLVQPGGSLRLSCAASGFTFSSYAMSWVRQAPGKGLEWVSAISDSGGSTYYADSVKGRFTISRDNSKNTLYLQMNSLRAEDTAAYYCAKEIAVALFDYWGQGTLVTVSS
VL: B1 VL with K24R, S32Y, N93S
notes: Human antibody; also called HuMab 063

EC50 [3]: 1.06 nM
% residual binding (biotinylated CD32bECDHis [6]): 98%
% residual binding (biotinylated CD32bECDHis [7]): 19%
% residual binding (biotinylated CD32bECDHis [8]): 8%
% residual binding (biotinylated CD32bECDHis [9]): 6%
% residual binding (biotinylated CD32bECDHis [10]): 26%
% residual binding (biotinylated CD32bECDHis [11]): 13%
% residual binding (biotinylated CD32bECDHis [12]): 4%
% residual binding (biotinylated CD32bECDHis [13]): 168%
% residual binding (biotinylated CD32bECDHis [14]): 40%
% residual binding (biotinylated CD32bECDHis [15]): 43%
% residual binding (biotinylated CD32bECDHis [16]): 195%
B3: Antibody 053 (antibody, human IgG1, V domains shown)
VH: QVQLVESGGGVVQPGRSLRLSCAVSGFTFRSYGMHWVRQAPGKGLEWVAVIWYDGSIKYYADSVKGRFTISRDNSKNTLYLQMNSLRAEDTAVYFCAREGGRDAFDIWGQGTMVTVSS
VL: AVQLTQSPSSLSASVGDRVTITCRASQGISSALAWYQQKPGKAPKLLIYDASSLESGVPSRFSGSGSGTDFTLTISSLQPEDFATYCCQQFNSYPHTFGGGTKVEIKR
notes: Human antibody; also called HuMab 053
